# Results reported in US20240132578A1.
# Columns and labels:
# Assay in all cases: cell-based or functional assay
# [1] = biological target: HIV-1 93IN905 envelope glycoprotein (Env) on pseudovirus (HIV-1)
# [2] = biological target: HIV-1 APV6 envelope glycoprotein (Env) on pseudovirus (HIV-1)
# [3] = biological target: HIV-1 JRFL envelope glycoprotein (Env) on pseudovirus (HIV-1)
# [4] = biological target: HIV-1 APV17 envelope glycoprotein (Env) on pseudovirus (HIV-1)
# [5] = biological target: HIV-1 92TH021 envelope glycoprotein (Env) on pseudovirus (HIV-1)
# [6] = biological target: HIV-1 MGRM-C-028 envelope glycoprotein (Env) on pseudovirus (HIV-1)
# [7] = biological target: HIV-1 92UG024 envelope glycoprotein (Env) on pseudovirus (HIV-1)
# [8] = biological target: HIV-1 MGRM-D-001 envelope glycoprotein (Env) on pseudovirus (HIV-1)
# [9] = biological target: HIV-1 NL43 envelope glycoprotein (Env) on pseudovirus (HIV-1)
# [10] = biological target: HIV-1 MGRM-C-027 envelope glycoprotein (Env) on pseudovirus (HIV-1)
# [11] = biological target: HIV-1 MGRM-C-026 envelope glycoprotein (Env) on pseudovirus (HIV-1)
# [12] = biological target: HIV-1 93UG077 envelope glycoprotein (Env) on pseudovirus (HIV-1)
# [13] = biological target: HIV-1 CMU02 envelope glycoprotein (Env) on pseudovirus (HIV-1)
# [14] = biological target: HIV-1 APV13 envelope glycoprotein (Env) on pseudovirus (HIV-1)
# [15] = biological target: HIV-1 94UG103 envelope protein (Env) on pseudotyped virus (HIV-1 strain 94UG103)
# [16] = biological target: HIV-1 IAVI_C22 envelope protein (Env) on pseudotyped virus (HIV-1 strain IAVI C22)
# [17] = biological target: HIV-1 92TH021 envelope protein (Env) on pseudotyped virus (HIV-1 strain 92TH021)
# [18] = biological target: aMLV envelope (negative control)
# [19] = biological target: HIV-1 Env of isolate CMU02 (CRF01_AE) (HIV-1)
# [20] = biological target: HIV-1 Env of isolate 92UG024 (Clade D) (HIV-1)
# [21] = biological target: HIV-1 Env of isolate NL43 (positive control) (HIV-1)
# [22] = biological target: HIV-1 Env of isolate 93UG077 (Clade A) (HIV-1)
# [23] = biological target: HIV-1 JR-CSF Env N295A (HIV-1 (isolate JR-CSF, clade B)) (UniProt P20871)
# [24] = biological target: HIV-1 JR-CSF Env F317A (HIV-1 (isolate JR-CSF, clade B)) (UniProt P20871)
# [25] = biological target: HIV-1 JRFL Env (HIV-1)
# [26] = biological target: HIV-1 JR-CSF Env K305A (HIV-1 (isolate JR-CSF, clade B)) (UniProt P20871)
# [27] = biological target: HIV-1 MGRM-D-001 Env (HIV-1)
# [28] = biological target: HIV-1 APV13 Env (HIV-1)
# [29] = biological target: HIV-1 JR-CSF Env I309A (HIV-1 (isolate JR-CSF, clade B)) (UniProt P20871)
# [30] = biological target: HIV-1 JR-CSF Env D325A (HIV-1 isolate JR-CSF) (UniProt P20871)
# [31] = biological target: HIV-1 JR-CSF Env N332A (HIV-1 isolate JR-CSF) (UniProt P20871)
# [32] = biological target: HIV-1 envelope glycoprotein (Env) of isolate MGRM-Chronic-B-010, on pseudovirus (HIV-1)
# [33] = biological target: HIV-1 envelope glycoprotein (Env) of isolate 92WR026, subtype A (HIV-1)
# [34] = biological target: HIV-1 JR-CSF Env T202A (HIV-1 (isolate JR-CSF)) (UniProt P20871)
# [35] = biological target: HIV-1 envelope glycoprotein (Env) of isolate 92BR020, on pseudovirus (HIV-1)
# [36] = biological target: HIV-1 Env of isolate MGRM-F1-014 (pseudovirus) (HIV-1)
# [37] = biological target: HIV-1 JR-CSF Env R327A (HIV-1 isolate JR-CSF) (UniProt P20871)
# PGT-143 (4980_N08) (antibody), sequence (VH): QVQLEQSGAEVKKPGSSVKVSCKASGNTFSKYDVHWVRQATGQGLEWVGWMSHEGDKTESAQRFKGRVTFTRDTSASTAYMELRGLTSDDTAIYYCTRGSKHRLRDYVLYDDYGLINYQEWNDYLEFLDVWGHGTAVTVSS
# PGT-143 (4980_N08) (antibody), sequence (VL): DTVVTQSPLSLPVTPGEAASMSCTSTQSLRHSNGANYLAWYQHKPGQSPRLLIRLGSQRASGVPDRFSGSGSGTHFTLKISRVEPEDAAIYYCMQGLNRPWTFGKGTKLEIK
# PGT-144 (4970_K22) (antibody), sequence (VH): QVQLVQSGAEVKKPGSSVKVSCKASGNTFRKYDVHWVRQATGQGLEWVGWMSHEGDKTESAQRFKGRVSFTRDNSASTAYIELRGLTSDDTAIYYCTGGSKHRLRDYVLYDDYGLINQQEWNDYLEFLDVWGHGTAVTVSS
# PGT-144 (4970_K22) (antibody), sequence (VL): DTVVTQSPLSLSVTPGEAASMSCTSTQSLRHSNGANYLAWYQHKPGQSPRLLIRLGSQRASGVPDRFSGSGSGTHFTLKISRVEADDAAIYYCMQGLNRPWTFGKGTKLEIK
substance,measurement,setting,value
PGT-143 (4980_N08) (antibody),"IC50, pseudovirus neutralization",[1],0.0021 µg/mL
same,"IC50, pseudovirus neutralization",[2],4.43 µg/mL
same,"IC50, pseudovirus neutralization",[3],> 10 µg/mL
same,"IC50, pseudovirus neutralization",[4],0.618 µg/mL
same,"IC50, pseudovirus neutralization",[5],0.0028 µg/mL
same,"IC50, pseudovirus neutralization",[6],1.82 µg/mL
same,"IC50, pseudovirus neutralization",[7],> 10 µg/mL
same,"IC50, pseudovirus neutralization",[8],> 10 µg/mL
same,"IC50, pseudovirus neutralization",[9],0.585 µg/mL
same,"IC50, pseudovirus neutralization",[10],0.505 µg/mL
same,"IC50, pseudovirus neutralization",[11],> 10 µg/mL
same,"IC50, pseudovirus neutralization",[12],> 10 µg/mL
same,"IC50, pseudovirus neutralization",[13],> 10 µg/mL
same,"IC50, pseudovirus neutralization",[14],> 10 µg/mL
1496_C09 (PG9) (TCN-109) (antibody),"IC50, Neutralizing Antibody Assay, Virus/Ab Incubation 1 hour",[15],0.334 µg/mL
same,"IC50, Neutralizing Antibody Assay, Virus/Ab Incubation 18 hour",[15],0.0942 µg/mL
same,"IC50, Neutralizing Antibody Assay, Virus/Ab Incubation 1 hour",[16],24.9 µg/mL
same,"IC50, Neutralizing Antibody Assay, Virus/Ab Incubation 18 hour",[16],2.11 µg/mL
same,"IC50, Neutralizing Antibody Assay, Virus/Ab Incubation 1 hour",[17],0.0612 µg/mL
same,"IC50, Neutralizing Antibody Assay, Virus/Ab Incubation 18 hour",[17],0.0571 µg/mL
2F5 (antibody),IC90 (neutralization of pseudovirus),[18],> 50 µg/mL
same,IC90 (neutralization of pseudovirus),[19],12.2 µg/mL
same,IC90 (neutralization of pseudovirus),[20],34.4 µg/mL
same,IC90 (neutralization of pseudovirus),[21],19.3 µg/mL
same,IC90 (neutralization of pseudovirus),[22],33.4 µg/mL
5147_N06 (PGT-130) (antibody),Fold IC50 increase relative to wild-type,[23],0.7 fold
same,Fold IC50 increase relative to wild-type,[24],17 fold
same,"IC50, pseudovirus neutralization",[25],0.0346 µg/mL
same,Fold IC50 increase relative to wild-type,[26],6.9 fold
same,"IC50, pseudovirus neutralization",[27],> 10 µg/mL
same,"IC50, pseudovirus neutralization",[28],0.0345 µg/mL
same,Fold IC50 increase relative to wild-type,[29],> 77.9 fold
same,Fold IC50 increase relative to wild-type,[30],> 1000 fold
1495_C14 (PGC14) (antibody),"IC50, Neutralizing Antibody Assay, Virus/Ab Incubation 1 hour",[15],> 50 µg/mL
same,"IC50, Neutralizing Antibody Assay, Virus/Ab Incubation 18 hour",[15],> 50 µg/mL
same,"IC50, Neutralizing Antibody Assay, Virus/Ab Incubation 1 hour",[16],> 50 µg/mL
same,"IC50, Neutralizing Antibody Assay, Virus/Ab Incubation 18 hour",[16],13.4 µg/mL
same,"IC50, Neutralizing Antibody Assay, Virus/Ab Incubation 1 hour",[17],> 50 µg/mL
same,"IC50, Neutralizing Antibody Assay, Virus/Ab Incubation 18 hour",[17],> 50 µg/mL
5123_A06 (PGT-125) (antibody),Fold IC50 increase relative to wild-type,[31],2 fold
same,"IC50, pseudovirus neutralization",[32],0.006 µg/mL
same,Fold IC50 increase relative to wild-type,[23],0.8 fold
same,"IC50, pseudovirus neutralization",[33],0.007 µg/mL
same,"IC50, pseudovirus neutralization",[25],0.0156 µg/mL
same,"IC50, pseudovirus neutralization",[27],2.31 µg/mL
same,Fold IC50 increase relative to wild-type,[34],0.8 fold
same,"IC50, pseudovirus neutralization",[28],0.0128 µg/mL
same,"IC50, pseudovirus neutralization",[35],0.016 µg/mL
same,Fold IC50 increase relative to wild-type,[30],0.4 fold
same,"IC50 (µg/mL), pseudovirus neutralization",[36],> 50 µg/mL
5141_B17 (PGT-126) (antibody),Fold IC50 increase relative to wild-type,[31],181 fold
same,"IC50, pseudovirus neutralization",[32],0.005 µg/mL
same,"IC50, pseudovirus neutralization",[33],0.008 µg/mL
same,"IC50, pseudovirus neutralization",[25],0.014 µg/mL
same,"IC50, pseudovirus neutralization",[27],0.0639 µg/mL
same,"IC50, pseudovirus neutralization",[28],0.012 µg/mL
same,"IC50, pseudovirus neutralization",[35],0.015 µg/mL
same,"IC50 (µg/mL), pseudovirus neutralization",[36],> 50 µg/mL
same,Fold IC50 increase relative to wild-type,[37],2.2 fold
PGT-144 (4970_K22) (antibody),"IC50, pseudovirus neutralization",[1],0.158 µg/mL
same,"IC50, pseudovirus neutralization",[2],> 10 µg/mL
same,"IC50, pseudovirus neutralization",[3],> 10 µg/mL
same,"IC50, pseudovirus neutralization",[4],5.12 µg/mL
same,"IC50, pseudovirus neutralization",[5],0.0934 µg/mL
same,"IC50, pseudovirus neutralization",[6],> 10 µg/mL
same,"IC50, pseudovirus neutralization",[7],> 10 µg/mL
same,"IC50, pseudovirus neutralization",[8],> 10 µg/mL
same,"IC50, pseudovirus neutralization",[9],> 10 µg/mL
same,"IC50, pseudovirus neutralization",[10],> 10 µg/mL
same,"IC50, pseudovirus neutralization",[11],> 10 µg/mL
same,"IC50, pseudovirus neutralization",[12],> 10 µg/mL
same,"IC50, pseudovirus neutralization",[13],> 10 µg/mL
same,"IC50, pseudovirus neutralization",[14],> 10 µg/mL
